The source of these data is article PMC7264293, “Multi-site-mediated entwining of the linear WIR-motif around WIPI β-propellers for autophagy” (Nature Communications, 2020).

This experiment deals with WIPI3-Δloop (human), Q5MNZ6. Put plainly: ITC; WIPI3 proteins in the sample cell, GB1-tagged ATG2A fragments in the syringe; 25 °C; 50 mM Tris-HCl pH 8.0, 100 mM NaCl, 1 mM EDTA, 1 mM DTT; model of one binding site. (Isothermal titration calorimetry measures the heat released or taken up as one component is titrated into another.)

In general, Kd refers to the equilibrium constant for the complex coming apart. A higher Kd goes with lower affinity.

Sequence of WIPI3-Δloop (human), Q5MNZ6 (Q5MNZ6 other isoform, or with tags, fused parts or gaps mutant): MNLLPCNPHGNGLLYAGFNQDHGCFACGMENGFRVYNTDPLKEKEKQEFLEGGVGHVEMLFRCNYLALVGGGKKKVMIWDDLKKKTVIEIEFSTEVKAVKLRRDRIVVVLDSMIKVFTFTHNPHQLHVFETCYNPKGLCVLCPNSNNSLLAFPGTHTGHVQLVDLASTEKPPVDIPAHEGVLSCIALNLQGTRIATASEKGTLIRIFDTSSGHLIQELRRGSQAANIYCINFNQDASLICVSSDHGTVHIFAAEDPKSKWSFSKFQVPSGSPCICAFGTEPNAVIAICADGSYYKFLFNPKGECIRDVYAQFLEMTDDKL

As for GPIVVRDGYFSRPIGSTD (modifications not checked) [GB1-tagged WIR-peptide ΔN-strand], the Kd was 64.3 µM.
